# Entries after “also recorded” stand apart in the source; their conditions may differ.
# Tests used:
# [1] = target: HLA-A*0201 molecule (Homo sapiens, UniProt P04439, D140Y/D185E/D98H/E176V/E277Q/G131W/G231S/I119V/I121R/I166T/I218V/L300P/L318F/N151K/N90K/P208A/P217A/Q86G/Q94H/R138H/R169H/T345S); conditions: cited from earlier work
# [2] = system: A-375 (human melanoma cell line, positive for HLA-A2 and MAG-003 expression); experiment: IFNγ release, TCR-expressing CD8+ T-cells co-incubated with A-375; format: cell-based; conditions: for IFNγ release: Example 4, A-375, HLA-A2-positive and MAG-003-positive; for T-cell activation (IFN-γ release): Example 6, A-375 expressing HLA-A*02 and MAGEA4
# Method: (§1) To determine efficacy of T-cells expressing TCRs described herein, primary CD8+ T-cells electroporated with RNA of the TCRs R7P1 D5, R20P1H7 and R10P2G12 were co-incubated with different human cancer cell lines, e.g., A-375 (human melanoma cell line, which is positive for HLA-A2 and MAG-003 expression), T98G (human glioblastoma cell line, which is HLA-A2-positive and MAG-003-negative), and SK-BR-3 (human breast cancer cell line, which is HLA-A2-negative and MAG-003-negative), followed by IFNγ release assay.
# (§2) TCRs of interest were expressed in human T cells via RNA electroporation and the T cells were assessed for IFN-γ release after co-culture with different target cells, such as T2 cells loaded with different peptides as well as tumor cell lines and primary cells from healthy tissues. T-cell activation data are shown in absolute IFN-γ levels or a normalized way as indicated below.
# (§3) Efficacy of CD8+ T cells expressing TCRs R7P1 D5, R10P2G12 and R20P1H7 was determined by T cell activation studies (IFN-γ release) using different tumor cell lines as target cells. The characterization of the safety profile of TCRs of interest was approached by testing the potential activation of TCR-expressing T cells upon co-culture with isolated primary cell types from healthy tissues and induced pluripotent stem cell (iPSC)-derived cell types from HLA-A*02-positive donors (Table 13). Cell types were selected in a manner to cover most of the critical organs like e.g. brain, heart and liver and different cell types as epithelium, endothelium or smooth muscle. Tumor cell lines were analyzed side-by-side as positive and negative controls.
# (§4) Normalization Method for IFNγ Release: Meannorm(TCRoi;co)=[mean(TCRoi;co)−mean(TCRoi;effector only)]−[mean(mock;co)−mean(mock;effector only)]
# [3] = system: MHC/NYESO1-001 tetramer; experiment: Tetramer staining of TCR-RNA-electroporated CD8+ T-cells, MHC/NYESO1-001 control tetramer; format: binding, human
# From the text: (§5) FIG. 8 show MHC/MAG-003 tetramer or MHC/NYESO1-001 tetramer staining of CD8+ T-cells electroporated with alpha and beta chain RNA of TCRs R7P1 D5, R20P1H7 and R10P2G12 (Table 2), respectively. CD8+ T-cells electroporated with RNA of 1G4 TCR that specifically binds to MHC/NYESO1-001 complex and mock electroporated CD8+ T-cells served as controls.
# (§6) T-cell activation was further confirmed using a tetramer staining technique to detect MHC/MAG-003-binding activated cytotoxic T-cells. As shown in FIG. 8 and Table 11, a higher percentage of TCR-expressing CD8+ T-cells were stained positive fluorescent-labeled MHC/MAG-003 tetramer than that with MHC/NYESO1-001 control tetramer or mock control. […] The alpha and beta chains of TCR 1G4 are shown in SEQ ID NO:89 and 90, respectively: […]
# [4] = system: human non-small cell cancer cell line, H1755 (NCI-H1755); experiment: IFNγ release, TCR-expressing CD8+ T-cells co-incubated with H1755; format: cell-based; conditions: for T-cell activation (IFN-γ release): Example 6, NCI-H1755 expressing HLA-A*02 and MAGEA4
# Method: as §1, §2, §3, §4
# [5] = system: SK-BR-3 (human breast cancer cell line, HLA-A2-negative and MAG-003-negative); experiment: IFNγ release, TCR-expressing CD8+ T-cells co-incubated with SK-BR-3; format: cell-based; conditions: Example 4, SK-BR-3, compared with effector cell only control
# Method: as §1
# [6] = system: T98G (human glioblastoma cell line, HLA-A2-positive and MAG-003-negative); experiment: IFNγ release, TCR-expressing CD8+ T-cells co-incubated with T98G; format: cell-based; conditions: Example 4, T98G, compared with effector cell only control
# Method: as §1
# [7] = system: HLA-A*02 positive cell types from healthy tissues; experiment: Safety: IFN-γ release upon co-culture with primary and iPSC-derived cell types from healthy tissues; format: cell-based, human; conditions: E:T ratio 1:1, 20 h, ELISA, normalized
# From the text: FIG. 13 T cells transfected with RNA coding for TCR R7P1 D5, R10P2G12, R20P1H7, mock or the control TCR 1G4 (SEQ ID NO:X) were co-cultured with different primary human healthy tissue cells (see table 13 for abbreviations), the target negative tumor cell line MCF-7 and the MAGEA4- and NY-ESO1-positive cell lines A-375 and NCI-H1755. TCRs R7P1D5, R10P2G12, R20P1H7 and 1G4 expression in T cells was achieved by electroporation using an RNA vector. […] E:T ratio 1:1, 20,000 cells each, mean of IFN-γ release after 20 h from replicates is shown as measured by ELISA. Error bars indicate standard deviations. Results were normalized by subtraction of IFN-γ release from TCR-transfected T cells only and IFN-γ release due to co-culture of Target cells and T cells not expressing TCR of interest.
# as §2, §3, §4
# The respective CVnorm was calculated: CVnorm(TCRoi;co)=[CV(TCRoi;co)^2+CV(TCRoi;effector only)^2+CV(mock;co)^2+CV(mock;effector only)^2]^[½] TCRoi=effector cells expressing TCR of interest Mock=effector cells without exogenous TCR expression Co=effector cells co-cultured with target cells Effector only=effector cells not co-cultured Mean(norm)=mean IFNγ release (normalized) CV(norm)=coefficient of variation (normalized) Results: […]
# [8] = target: MHC/MAG-003 tetramer (Homo sapiens, UniProt P04439+P43358, D140Y/D185E/D98H/E176V/E277Q/G131W/G231S/I119V/I121R/I166T/I218V/N151K/N90K/P208A/P217A/Q86G/Q94H/R138H/R169H); experiment: Tetramer staining of TCR-RNA-electroporated CD8+ T-cells, MHC/MAG-003 tetramer; format: binding
# From the text: as §5, §6
# [9] = target: T1, MHC/MAG-003 complex (Homo sapiens, UniProt P04439+P43358, D140Y/D185E/D98H/E176V/E277Q/G131W/G231S/I119V/I121R/I166T/I218V/L300P/L318F/N151K/N90K/P208A/P217A/Q86G/Q94H/R138H/R169H/T345S); experiment: IFN-γ release assay: TCR-RNA-electroporated CD8+ T-cells co-incubated with peptide-loaded target cells; format: cell-based; conditions: target peptide (MAG-003) titration, IFN-γ release
# T1 construct: endogenous in cells
# Method: In another aspect, to obtain T-cells expressing TCRs of the present description, TCR RNAs were synthesized by techniques described in the art, e.g., in vitro transcription systems. The in vitro-synthesized TCR RNAs were then introduced into primary CD8+ T-cells obtained from healthy donors by electroporation to re-express tumor specific TCR-alpha and/or TCR-beta chains.
# To determine specificity and affinity of TCRs, the transformed CD8+ T-cells were co-incubated with MAG-003-loaded target cells or with target cells loaded with homologous but unrelated peptide RABGAP1L-001 (SEQ ID NO:91), AXIN1-001 (SEQ ID NO:92), ANO5-001 (SEQ ID NO:93), TPX2-001 (SEQ ID NO:94), SYNE3-001 (SEQ ID NO:95), MIA3-001 (SEQ ID NO:96), HERC4-001 (SEQ ID NO:97), PSME2-001 (SEQ ID NO:98), HEATR5A-001 (SEQ ID NO:99) or CNOT1-003 (SEQ ID NO:100) or control peptide NYESO1-001 (SEQ ID NO:101), followed by IFN-γ release assay. Unloaded target cells and CD8+ T-cells alone served as controls. IFN-γ secretion from CD8+ T-cells is indicative of T-cell activation with cytotoxic activity.
# As shown in FIGS. 5-7 all primary CD8+ T-cells transformed with TCRs of the present disclosure, after co-incubation with MAG-003-loaded target cells, released much higher levels of IFN-γ than that stimulated by unrelated peptide-loaded target cells, and the controls.
molecule,measurement,setting,value
YLLEHVVRV (listed as Homo sapiens) [p286-1Y2L],binding affinity and stability towards HLA-A*0201 molecule,[1],potent binding affinity and stability
"R10P2G12: TCR, alpha chain SEQ ID NO:71 and beta chain SEQ ID NO:79, MAG-003-specific (protein, listed as Homo sapiens) alpha: MLTASLLRAVIASICVVSSMAQKVTQAQTEISVVEKEDVTLDCVYETRDTTYYLFWYKQPPSGELVFLIRRNSFDEQNEISGRYSWNFQKSTSSFNFTITASQVVDSAVYFCALSEGNSGNTPLVFGKGTRLSVIANIQNPDPAVYQLRDSKSSDKSVCLFTDFDSQTNVSQSKDSDVYITDKTVLDMRSMDFKSNSAVAWSNKSDFACANAFNNSIIPEDTFFPSPESSCDVKLVEKSFETDTNLNFQNLSVIGFRILLLKVAGFNLLMTLRLWSS beta: MGIRLLCRVAFCFLAVGLVDVKVTQSSRYLVKRTGEKVFLECVQDMDHENMFWYRQDPGLGLRLIYFSYDVKMKEKGDIPEGYSVSREKKERFSLILESASTNQTSMYLCASSLSSGSHQETQYFGPGTRLLVLEDLKNVFPPEVAVFEPSEAEISHTQKATLVCLATGFYPDHVELSWWVNGKEVHSGVSTDPQPLKEQPALNDSRYCLSSRLRVSATFWQNPRNHFRCQVQFYGLSENDEWTQDRAKPVTQIVSAEAWGRADCGFTSESYQQGVLSATILYEILLGKATLYAVLVSALVLMAMVKRKDSRG",IFNγ release,[2],IFNγ release was observed
same,T-cell activation (IFN-γ release),[2],activity
same,% NYESO1-001 TET-positive primary CD8+ T-cells,[3],0.87%
same,T-cell activation (IFN-γ release),[4],activity
same,IFNγ release,[5],basal levels of IFNγ release
same,IFNγ release,[6],basal levels of IFNγ release
same,T-cell activation (IFN-γ release) by healthy tissue cells,[7],no activation was observed; also recorded: did not lead to significant TCR-mediated recognition and T-cell activation
same,% MAG-003 TET-positive primary CD8+ T-cells,[8],5.38%
"R7P1D5: TCR, alpha chain SEQ ID NO:55 and beta chain SEQ ID NO:63, MAG-003-specific, from HLA-A2 positive donor (protein, listed as Homo sapiens) alpha: MKTFAGFSFLFLWLQLDCMSRGEDVEQSLFLSVREGDSSVINCTYTDSSSTYLYWYKQEPGAGLQLLTYIFSNMDMKQDQRLTVLLNKKDKHLSLRIADTQTGDSAIYFCAEYSSASKIIFGSGTRLSIRPNIQNPDPAVYQLRDSKSSDKSVCLFTDFDSQTNVSQSKDSDVYITDKTVLDMRSMDFKSNSAVAWSNKSDFACANAFNNSIIPEDTFFPSPESSCDVKLVEKSFETDTNLNFQNLSVIGFRILLLKVAGFNLLMTLRLWSS beta: MGSWTLCCVSLCILVAKHTDAGVIQSPRHEVTEMGQEVTLRCKPISGHDYLFWYRQTMMRGLELLIYFNNNVPIDDSGMPEDRFSAKMPNASFSTLKIQPSEPRDSAVYFCASRANTGELFFGEGSRLTVLEDLKNVFPPEVAVFEPSEAEISHTQKATLVCLATGFYPDHVELSWWVNGKEVHSGVSTDPQPLKEQPALNDSRYCLSSRLRVSATFWQNPRNHFRCQVQFYGLSENDEWTQDRAKPVTQIVSAEAWGRADCGFTSESYQQGVLSATILYEILLGKATLYAVLVSALVLMAMVKRKDSRG",IFNγ release,[2],IFNγ release was observed
same,T-cell activation (IFN-γ release),[2],activity
same,% NYESO1-001 TET-positive primary CD8+ T-cells,[3],0.87%
same,IFNγ release,"[4]; Example 4, H1755, data not shown",increased IFNγ release
same,T-cell activation (IFN-γ release),[4],activity
same,IFNγ release,[5],basal levels of IFNγ release
same,IFNγ release,[6],basal levels of IFNγ release
same,T-cell activation (IFN-γ release) by healthy tissue cells,[7],did not lead to significant TCR-mediated recognition and T-cell activation
same,T-cell activation (IFN-γ release) by healthy tissue cells,[7]; listed as R7P1 D5,no activation was observed
same,% MAG-003 TET-positive primary CD8+ T-cells,[8],7.99%
same,EC50,[9],~3 nM

# Source: patent US10889629B2, “Transfected T-cells and T-cell receptors for use in immunotherapy against cancers” (IMMATICS BIOTECHNOLOGIES GMBH, priority 2016, dated 2021)
